Test results: patent US11351270B2, “Junctophilin-2 fragments and uses therefor” (University of Iowa Research Foundation, priority 2016, dated 2022)

Assays:
[1] = system: RNA polymerase II (RPB1) and TATA-box binding protein (TBP); assay: Crosslinking-reversal co-IP in 293T cells; settings: JP2NT-transfected 293T cells
Experimental: Cells were first crosslinked by 1% formaldehyde for 10 minutes at RT before quenching by 0.75 M Tris. After washing with PBS, cells were lysized using RIPA buffer and sonication was applied to breakdown chromatin and shear DNA. Anti-HA resin (sigma) was used to pull down HA tagged protein complexes. The pulled-down protein complexes were boiled at 95° C. for 10 minutes to reverse the formaldehyde induced crosslinking between proteins. Western blot was used to assay the presence of bait and prey proteins.
TBP specifically binds to TATA boxes, eukaryotic core cis-regulatory elements localized at transcription start site. […] This interaction was abrogated by mutation of the TATA box elements (FIGS. 11E&G and 17B). It was concluded that JP2NT is a DNA binding protein, binding to consensus TATA box represented as TATAA(A/T) or TATATA (FIG. 11F).

[2] = system: MEF2C-mediated transcriptional activity; assay: MEF2 luciferase reporter assay; assay type: cell-based; settings: 293 cells co-transfected with MEF2C and PMEF2-firefly, relative to PSV40-Renilla
Experimental: Firefly and Renilla reporter plasmids and JP2NT variants were co-transfected into HEK293 cells. The protein of the cells was harvested 48 hours after transfection. Promega dual luciferase system was used to evaluate the luciferase activity.
To examine whether JP2NT regulates MEF2-mediated transcription, a luciferase reporter system with firefly cDNA driven by the desmin enhancer-derived MEF2 binding site (PMEF2-firefly) (Naya et al., 1999) was used.

[3] = system: pressure overload hypertrophy and heart failure; assay: Transaortic banding (TAB) pressure overload in JP2NT-OE mice; assay type: in vivo, mouse
Experimental: Animal experiments were performed in accordance with the Guide for the Care and Use of Laboratory Animals (National Institutes of Health publication 85-23, revised 1996) and were approved by the Institutional Animal Care and Use Committee at the University of Iowa. Cardiac specific JP2NT overexpression vector was constructed by subcloning mouse JP2NT cDNA (Guo et al., 2015) into a tet-operated αMHC transgenic vector, as described previously (Guo et al., 2014). The oocyte injection of transgenic vectors was carried out by University of Iowa transgenic core. The injected oocytes were transferred to pseudopregnant recipients. Transgenic offsprings were backcrossed with C57BL/6J mice for >9 generations to generate transgenic mice in a C57BL/6J background. These transgenic mice were crossed with αMHC-tTA (C57 background) (Guo et al., 2014) to generate double transgenic mice (JP2NT-OE) carrying both αMHC-JP2NT and αMHC-tTA. The non-overexpression single transgenic littermates were used as control. PCR was used to determine the genotype of transgenic mice. Nine to 10-wk-old male JP2NT-OE mice and their control littermates were subjected to pressure overload by transaortic banding (TAB) surgery, as described (Guo et al., 2014). Transthoracic echocardiograms were performed with conscious mice in the University of Iowa Cardiology Animal Phenotyping Core Laboratory, using a Vevo 2100 Imager (Visual Sonics), as described previously (Cheng et al., 1993).

genomic DNA = assay: ChIP-seq of JP2NT-OE hearts; assay type: binding, mouse; settings: anti-HA ChIP-seq
Experimental: ChIP-seq from transgenic myocardium was performed using the antibody against HA-tag, which pulls down the HA-tagged JP2NT. Sequencing libraries were prepared for the pulled-down DNA and input DNA (randomly fragmented genomic DNA), and then were subjected to Illumina sequencing (NextSeq 500 platform, 75 bp single end reads). The quality of sequencing reads was evaluated by FastQC (version 0.11.3) software (http://www.bioinformatics.babraham.ac.uk/projects/fastqc/) and the sequencing adaptor was trimmed by Cutadapt (version 1.8.1) software (Martin, 2011). Processed sequencing reads were aligned to mouse genome (mm10) by Bowtie 2 (version 2.2.5) software (Langmead et al., 2012) with the “-end-to-end” mode. MACS (version 1.4.2) software […] was used to call enriched peaks (the cutoff of significance was p value<1e-10). Homer (version 4.8.3) software (Heinz et al., 2010) was used to analyze the enriched genomic features of peaks, identify the target genes, and search the binding motifs.

chromatin = assay: Biochemical fractionation for chromatin association; assay type: cell-based; settings: MNASE digestion, Western blot
Description: FIGS. 10A-D. JP2NT contains a NLS and a chromatin/DNA-binding domain. A-B) A conserved NLS in JP2 N-terminus is essential for nuclear accumulation of JP2NT. a-c, Subcellular localization of eGFP and eGFP-fused JP2 and eGFP-JP2NT in 293T cells. Full length JP2 localizes on both plasma membrane and ER network (b). […] C-D) JP2NT associates with chromatin. a, Schematic of the subcellular fractionation approach (adapted from Wisoka et al 2001). b, Subnuclear distribution of JP2NT and fragments/mutants. JP2NT is present in both soluble nuclear (S3) and chromatin fractions (S4). Deletion of the MORN domains (JP2NT JP2NT^ΔMORNs) had no effect on subnuclear distribution of JP2NT. However, the amount of chromatin-associated JP2NT was decreased by deletion of the bNLS alone (JP2NT^ΔMORNs/ΔbNLS), deletion of the ARR alone (JP2 JP2NT^ΔMORNs/ΔARR), or deletion of both the bNLS and ARR (JP2^ΔMORNs/ΔbNLS/ΔARR and JP2NT^ΔbNLS/ΔARR). Histone H3: chromatin marker.
Ultracentrifuge based protein fractionation was performed following the protocol described previously (van Berlo et al., 2013). For some experiments, the soluble nuclear fraction (Nu-S) was separately extracted using nuclear extraction buffer (NEB) from the Tissue subcellular fractionation kit of Thermo Scientific, and the remaining insoluble fraction was subjected to MNASE digestion for chromatin fraction extraction. […]

[4] = after TAB, relative to controls

B1: JP2NT: shorter form of Junctophilin-2 including the first 565 amino acids of N-terminus of JP2 (protein, UniProt Q9BR39 1-565, looked up, fragment)
chain: MSGGRFDFDDGGAYCGGWEGGKAHGHGLCTGPKGQGEYSGSWNFGFEVAGVYTWPSGNTFEGYWSQGKRHGLGIETKGRWLYKGEWTHGFKGRYGIRQSSSSGAKYEGTWNNGLQDGYGTETYADGGTYQGQFTNGMRHGYGVRQSVPYGMAVVVRSPLRTSLSSLRSEHSNGTVAPDSPASPASDGPALPSPAIPRGGFALSLLANAEAAARAPKGGGLFQRGALLGKLRRAESRTSVGSQRSRVSFLKSDLSSGASDAASTASLGEAAEGADEAAPFEADIDATTTETYMGEWKNDKRSGFGVSERSSGLRYEGEWLDNLRHGYGCTTLPDGHREEGKYRHNVLVKDTKRRMLQLKSNKVRQKVEHSVEGAQRAAAIARQKAEIAASRTSHAKAKAEAAEQAALAANQESNIARTLARELAPDFYQPGPEYQKRRLLQEILENSESLLEPPDRGAGAAGLPQPPRESPQLHERETPRPEGGSPSPAGTPPQPKRPRPGVSKDGLLSPGAWNGEPSGEGSRSVTPSEGAGRRSPARPATERMAIEALQAPPAPSREPEVALYQG
modifications: GST or adenoviral forms
notes: shorter form of Junctophilin-2 including the first 565 amino acids of N-terminus of JP2
[1]
  association with RNA polymerase II (RPB1) and TBP: associates
[2]
  MEF2-responsive luciferase signal: attenuated the MEF2-responsive signal in a dose-dependent manner
[3]; 3 weeks after TAB, relative to controls
  cardiac function (ejection fraction): improved cardiac function
[3]; JP2NT OE mice
  pressure overload induced heart failure: resistant
[3]; [4]
  heart weight/body weight ratio: lower
  lung edema (lung weight/body weight ratio): reduced lung edema
[3]; baseline, no TAB
  cardiac morphology or function at baseline: no effect
Genomic DNA
  JP2NT-binding genomic DNA regions (p<10^−10): 18,242
  genes encompassed by JP2NT-binding regions: 10,587 genes
chromatin
  association with chromatin (insoluble nuclear fraction): detected in both soluble (S3) and chromatin containing insoluble (P4) nuclear fractions
